In assay [1] the target is rat acid sensing ion channel subtype 1a (homomeric, expressed in Xenopus laevis oocytes) (rat) (UniProt P55926). Briefly: inhibition of rASIC1a currents in Xenopus oocytes.
Assay [2] shares this target. Kind of assay: cell-based or functional assay.
Assay [3] deals with T1, rat acid sensing ion channel subtype 2a (homomeric, expressed in Xenopus laevis oocytes) (rat, UniProt Q62962 1-512).
T1 sequence: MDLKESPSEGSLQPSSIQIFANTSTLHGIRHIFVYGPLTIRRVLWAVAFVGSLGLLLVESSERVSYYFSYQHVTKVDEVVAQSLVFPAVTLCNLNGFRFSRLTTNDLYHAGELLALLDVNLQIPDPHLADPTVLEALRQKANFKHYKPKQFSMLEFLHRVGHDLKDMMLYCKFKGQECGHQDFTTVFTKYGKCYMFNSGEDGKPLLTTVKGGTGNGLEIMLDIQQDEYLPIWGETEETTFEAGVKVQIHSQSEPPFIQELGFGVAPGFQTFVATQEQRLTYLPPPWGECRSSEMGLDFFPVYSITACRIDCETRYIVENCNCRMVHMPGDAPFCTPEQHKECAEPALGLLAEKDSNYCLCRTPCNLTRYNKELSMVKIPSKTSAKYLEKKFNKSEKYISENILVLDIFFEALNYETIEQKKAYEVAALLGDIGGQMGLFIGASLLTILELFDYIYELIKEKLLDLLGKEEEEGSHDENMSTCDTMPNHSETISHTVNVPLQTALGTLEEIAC
Briefly: cell-based or functional assay.

For assay [4], the target named is T2, rat acid sensing ion channel subtype 3 (homomeric, expressed in Xenopus laevis oocytes) (rat, UniProt O35240 1-533).
T2 sequence: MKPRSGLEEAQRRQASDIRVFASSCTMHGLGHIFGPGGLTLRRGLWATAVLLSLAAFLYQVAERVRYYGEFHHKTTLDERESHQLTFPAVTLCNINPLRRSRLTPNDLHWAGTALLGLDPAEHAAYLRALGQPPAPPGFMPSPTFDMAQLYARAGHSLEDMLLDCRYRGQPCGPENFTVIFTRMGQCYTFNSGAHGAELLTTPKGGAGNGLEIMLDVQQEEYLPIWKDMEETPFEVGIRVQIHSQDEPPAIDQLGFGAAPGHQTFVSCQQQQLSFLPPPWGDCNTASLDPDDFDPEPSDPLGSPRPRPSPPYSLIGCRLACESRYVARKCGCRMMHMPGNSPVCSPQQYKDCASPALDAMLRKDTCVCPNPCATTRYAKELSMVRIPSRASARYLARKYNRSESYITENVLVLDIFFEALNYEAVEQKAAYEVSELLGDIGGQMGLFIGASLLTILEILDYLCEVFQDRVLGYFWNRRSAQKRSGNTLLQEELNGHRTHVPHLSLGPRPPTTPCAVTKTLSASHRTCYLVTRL
Kind of assay: cell-based or functional assay.

For assay [5], the target named is human acid sensing ion channel subtype 1a (homomeric, expressed in Xenopus laevis oocytes) (human), P78348. Briefly: cell-based or functional assay.
Chain of human acid sensing ion channel subtype 1a (homomeric, expressed in Xenopus laevis oocytes) (human), P78348 (P78348 whole entry): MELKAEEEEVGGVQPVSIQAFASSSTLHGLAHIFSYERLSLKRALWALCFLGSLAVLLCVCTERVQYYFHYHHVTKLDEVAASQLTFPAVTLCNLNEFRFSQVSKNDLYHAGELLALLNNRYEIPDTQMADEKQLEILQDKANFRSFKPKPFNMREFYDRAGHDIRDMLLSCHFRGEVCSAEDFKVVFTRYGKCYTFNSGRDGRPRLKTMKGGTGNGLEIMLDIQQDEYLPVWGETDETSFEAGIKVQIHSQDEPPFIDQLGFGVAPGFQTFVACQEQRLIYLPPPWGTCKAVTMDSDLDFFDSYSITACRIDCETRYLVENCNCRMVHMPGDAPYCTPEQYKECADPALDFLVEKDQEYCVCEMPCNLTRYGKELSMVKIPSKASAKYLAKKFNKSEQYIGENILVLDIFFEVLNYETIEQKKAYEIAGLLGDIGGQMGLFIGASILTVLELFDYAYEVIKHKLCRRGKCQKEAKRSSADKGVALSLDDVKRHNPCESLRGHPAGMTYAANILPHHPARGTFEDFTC
Assay [6] deals with rat acid sensing ion channel subtype 1b (homomeric, expressed in Xenopus laevis oocytes) (rat), P55926. Briefly: cell-based or functional assay.
Chain of rat acid sensing ion channel subtype 1b (homomeric, expressed in Xenopus laevis oocytes) (rat), P55926 (P55926 whole entry): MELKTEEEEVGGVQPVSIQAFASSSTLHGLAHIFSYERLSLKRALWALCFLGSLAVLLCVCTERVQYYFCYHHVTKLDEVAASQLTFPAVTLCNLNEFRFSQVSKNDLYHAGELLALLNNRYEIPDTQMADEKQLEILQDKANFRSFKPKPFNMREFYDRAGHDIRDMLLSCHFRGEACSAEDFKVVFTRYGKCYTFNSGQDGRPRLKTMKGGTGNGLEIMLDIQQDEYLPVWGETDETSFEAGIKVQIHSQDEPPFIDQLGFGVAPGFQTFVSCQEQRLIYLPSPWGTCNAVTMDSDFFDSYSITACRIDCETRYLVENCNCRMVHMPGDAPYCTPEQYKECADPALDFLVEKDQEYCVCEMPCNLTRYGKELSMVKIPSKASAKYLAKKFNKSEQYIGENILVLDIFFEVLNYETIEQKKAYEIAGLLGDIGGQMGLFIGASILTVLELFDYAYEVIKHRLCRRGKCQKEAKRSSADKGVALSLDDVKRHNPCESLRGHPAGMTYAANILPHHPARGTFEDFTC

Some results are limits rather than exact numbers.

Chain of rat acid sensing ion channel subtype 1a (homomeric, expressed in Xenopus laevis oocytes) (rat) (P55926 whole entry): as above

“recombinant Hi1a (π-hexatoxin-Hi1a) expressed in E. coli” came in with an IC50 in assay [1] of 0.464 nM.
For “C-terminal ICK domain of Hi1a (Hi1a-C), produced in E. coli”, the IC50 in assay [1] was more than 30000 nM.
“recombinant Hi1a (π-hexatoxin-Hi1a) expressed in E. coli (peptide)”: in assay [2], the % Residual Current amounted to 30% and the IC50 (inhibition of acid-evoked current, TEVC, Xenopus oocytes) was 0.46 nM.
Consider “N-terminal ICK domain of Hi1a (Hi1a-N), produced in E. coli (peptide)”, for which, in assay [2], the IC50 (inhibition of acid-evoked current, TEVC, Xenopus oocytes) was determined as 1000 nM and the fold lower potency than PcTx1 or full-length Hi1a turned out to be 1000 fold.
recombinant Hi1d (peptide): in assay [2], the % Residual Current was 0%; the IC50 (inhibition of acid-evoked current, TEVC, Xenopus oocytes) is 193 nM; the time to full reversal of inhibition on washout (TEVC) is less than 60 s.

B1: recombinant Hi1a (π-hexatoxin-Hi1a) expressed in E. coli (peptide)
peptide: SNECIRKWLSCVDRKNDCCEGLECYKRRHSFEVCVPIPGFCLVKWKQCDGRERDCCAGLECWKRSGNKSSVCAPIT
Turning to B1, the “fold higher potency at ASIC1a over this subtype (from 1 µM Hi1a, TEVC)” value in assay [3], in assay [4] and in assay [6] was more than 2000 fold throughout. The “selectivity for ASIC1a over this subtype (from 30 nM Hi1a, TEVC)” value in assay [3] was not below 50 fold; in assay [4] it was not below 50 fold; in assay [6] it was more than 50 fold. The % Residual Current in assay [5] came to 20%. For the same molecule, the IC50 (inhibition of acid-evoked current, TEVC, Xenopus oocytes) in assay [5] is 0.59 nM.

B2: recombinant engineered peptide #1 (EP 1), two copies of PcTx1 joined by a linker (designed binder)
peptide: SEDCIPKWKGCVNRHGDCCEGLECWKRRRSFEVCVPKTEDCIPKWKGCVNRHGDCCEGLECWKRRRSFEVCVPKTPKT
In assay [2], B2 displayed a % Residual Current of 0%; an IC50 (inhibition of acid-evoked current, TEVC, Xenopus oocytes) of 64 nM; a fold increase in IC50 against wild-type Hi1a of 200 fold.

B3: recombinant engineered peptide #2 (EP 2), as EP 1 with a Glu to Gly mutation in the linker (designed binder)
peptide: SEDCIPKWKGCVNRHGDCCEGLECWKRRRSFEVCVPKTGDCIPKWKGCVNRHGDCCEGLECWKRRRSFEVCVPKTPKT
In assay [2], B3 displayed a % Residual Current of 0%; an IC50 (inhibition of acid-evoked current, TEVC, Xenopus oocytes) of 215 nM; a fold increase in IC50 against wild-type Hi1a of 500 fold.

Values taken from US20200061156A1 (UNIVERSITY OF QUEENSLAND, published 2020).
